In patent publication US20170362330A1:

Tests used:
human CD46 (human) [1] = molecular target: human CD46 (human) (UniProt P15529); experiment: FACS on Du-145 cells, 4 °C overnight, MFI curve fit
[2] = molecular target: human CD46 (human), P15529; experiment: cell-based or functional assay
human CD46 (human) [3] = molecular target: human CD46 (human) (UniProt P15529); experiment: FACS on CHO cells transfected with human CD46, 4 °C overnight, MFI curve fit
human CD46 (human) [4] = molecular target: human CD46 (human) (UniProt P15529); experiment: FACS on CHO-huCD46 cells, 4 C overnight, MFI against antibody concentration

human CD46 (human), sequence (P15529 35-392): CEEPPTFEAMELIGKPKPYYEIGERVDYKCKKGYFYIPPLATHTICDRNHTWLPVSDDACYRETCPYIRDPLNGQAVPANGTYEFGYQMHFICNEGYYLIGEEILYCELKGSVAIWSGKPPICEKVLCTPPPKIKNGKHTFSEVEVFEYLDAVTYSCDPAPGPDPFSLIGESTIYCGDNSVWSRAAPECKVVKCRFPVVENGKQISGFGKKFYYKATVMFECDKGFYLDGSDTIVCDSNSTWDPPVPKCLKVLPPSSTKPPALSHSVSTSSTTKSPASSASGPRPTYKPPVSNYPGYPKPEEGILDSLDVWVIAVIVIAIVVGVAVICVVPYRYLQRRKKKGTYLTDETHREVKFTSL
human CD46 (human), P15529, sequence (P15529 35-392): as above

Kd (human CD46 (human) [1])	Kd (human CD46 (human) [3])	EC50 (read off the curve) (human CD46 (human) [4])	Binder	EC50 of cell killing, LNCaP C4-2B cells with prior exposure to abiraterone (CD46 upregulated), 96 hours [2]	EC50 of cell killing, LNCaP C4-2B cells without prior exposure to abiraterone, 96 hours [2]	cytotoxic activity on H660 cells in vitro (Calcein AM viability, 7 days) [2]	fold drop of killing EC50 on H660 cells after enzalutamide treatment [2]
0.043 nM	–	–	YS12 (antibody, V domains shown) VH: QVQLVESGGGVVQPGRSLRLSCAASGFTFSTYGMHWVRQAPGKGLEWLSFISYDGDEKYYADSVKGRFTISRDNSKNTLYLQMNSLRAEDTAVYWCAKASGYGMGILDYWGQGTLVTVSS VL: SSELTQDPAVSVALGQTVRITCQGDSLRSYYVSWFQQKPGQAPVFVMYGQNNRPSGISERFSGSSSGNTASLIITGAQAEDEADYYCHSRDSSGTHLRVFGGGTKLTVL	–	–	–	–
–	–	–	YS5-mcvcpab-MMAF (protein, here or on the partner: monomethyl auristatin F (MMAF) conjugated via the MC-vc-PAB linker, on average about 3 drugs per antibody molecule; attachment residues not stated) VH: QVQLVQSGGGVVQPGRSLRLACAASGLTVNNYAMHWVRQAPGKGLEWVAVISYDGNNKYYADSVKGRFTISRDNSKNTLYLQMNSLRAEDTAVYYCAKGGGYFDLWGRGTLVTVSS VL: QSVLTQPPSVSGAPGQRVTISCTGSSSNIGAGYDVHWYQQLPGTAPKLLIYGNNNRPSGVPDRFSGSKSGTSASLAITGLQAEDEADYYCSSYTSGTWLFGGGTKLTVL	0.021 nM	0.169 nM	< 1 nM	4 to 5 fold
2.19 nM	0.867 nM	1 nM	YS5 (antibody, V domains shown) VH: QVQLVQSGGGVVQPGRSLRLACAASGLTVNNYAMHWVRQAPGKGLEWVAVISYDGNNKYYADSVKGRFTISRDNSKNTLYLQMNSLRAEDTAVYYCAKGGGYFDLWGRGTLVTVSS VL: QSVLTQPPSVSGAPGQRVTISCTGSSSNIGAGYDVHWYQQLPGTAPKLLIYGNNNRPSGVPDRFSGSKSGTSASLAITGLQAEDEADYYCSSYTSGTWLFGGGTKLTVL	–	–	–	–
